Assay results reported in the supplement of paper PMC11865577.

Experiments:
Experiment in all cases: pull-down binding Z-score (relative to library population); higher = stronger binding
[1] = system: G-clamp-N3 (biotin conjugate); conditions: RNA library: Library-1 (pre-miRNA loops + repeats)
In short: (§1)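 A heat-folded, dye-end-labelled (Cy5 or Cy3) RNA library (1 μg, phosphate/NaCl/KCl buffer) was exposed for 60 min at 25 °C to streptavidin beads holding 100 pmol of biotin-conjugated small molecule. RNA retained on the beads was eluted in hot SDS and hybridised to a DNA barcode microarray for 20 h at 55.5 °C. Binding scores were Z-scores against the library mean and standard deviation, calculated after subtracting beads alone and taking trimmed means of replicate probes.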

[2] = system: TO-3-N3-2 (biotin conjugate); conditions: RNA library: Library-2
In short: as §1

[3] = system: TO-N3-2 (biotin conjugate); conditions: RNA library: Library-2
In short: as §1

[4] = system: TO-3-N3 (biotin conjugate); conditions: RNA library: Library-2
In short: as §1

TO-N3 (biotin conjugate) = conditions: RNA library: Library-2
In short: as §1

GGAGGCCCCGCCCUGCUGCCGACCCUGUGGAGCGGAGGGUGAAGCCUCC [hsa-mir-3180-5]
pull-down binding Z-score [1]: 0.844
pull-down binding Z-score [2]: 0.0715
pull-down binding Z-score [3]: 1.98
pull-down binding Z-score [4]: 0.326
pull-down binding Z-score (TO-N3 (biotin conjugate)): 1.1

UCAGUUUUGUAGCAUCAAAACU [hsa-mir-4521]
pull-down binding Z-score [1]: -0.216
pull-down binding Z-score [2]: -0.161
pull-down binding Z-score [3]: -0.134
pull-down binding Z-score [4]: -0.308
pull-down binding Z-score (TO-N3 (biotin conjugate)): -0.342

GGGCCAGUCUGACCGUUUCUAGGCG [hsa-mir-551a]
pull-down binding Z-score [1]: 0.753
pull-down binding Z-score [2]: 0.662
pull-down binding Z-score [3]: 1.75
pull-down binding Z-score [4]: 0.541
pull-down binding Z-score (TO-N3 (biotin conjugate)): 1.41

UUCUCUUUAUUUAUGAUGAA [hsa-mir-494]
pull-down binding Z-score [1]: -1.25
pull-down binding Z-score [2]: -0.639
pull-down binding Z-score [3]: -1.8
pull-down binding Z-score [4]: -0.968
pull-down binding Z-score (TO-N3 (biotin conjugate)): -1.56

GUAUGAGUGUAUUGGUCUUCAUAA [hsa-mir-9-2]
pull-down binding Z-score [1]: -0.373
pull-down binding Z-score [2]: 0.203
pull-down binding Z-score [3]: 0.481
pull-down binding Z-score [4]: -0.226
pull-down binding Z-score (TO-N3 (biotin conjugate)): 0.0907

UUGGUCCGUAUGUGUGGUGCCACCGG [hsa-mir-1908]
pull-down binding Z-score [1]: -0.147
pull-down binding Z-score [2]: -0.0706
pull-down binding Z-score [3]: 0.948
pull-down binding Z-score [4]: -0.202
pull-down binding Z-score (TO-N3 (biotin conjugate)): 0.148

AUGGGGCAGCUGGGAUGGUCCAAAAGGGUGGCCUCA [hsa-mir-1226]
pull-down binding Z-score [1]: 1.14
pull-down binding Z-score [2]: 0.406
pull-down binding Z-score [3]: 1.17
pull-down binding Z-score [4]: 0.729
pull-down binding Z-score (TO-N3 (biotin conjugate)): 1.05

AGGUGGAAAGGGAGCAGGAGCAUCGUCUUUAAGAGGGUCAGGUACCUUUGCUCUUA [hsa-mir-6083]
pull-down binding Z-score [1]: 0.244
pull-down binding Z-score [2]: 0.394
pull-down binding Z-score [3]: 1.33
pull-down binding Z-score [4]: -0.0151
pull-down binding Z-score (TO-N3 (biotin conjugate)): 0.724

GGGCUGCCCGGGCCGGUCGACCAGCGCGCCGUAGCUCC [hsa-mir-6724-2_6724-3_6724-1_6724-4]
pull-down binding Z-score [1]: 0.0384
pull-down binding Z-score [2]: -0.0157
pull-down binding Z-score [3]: 2.24
pull-down binding Z-score [4]: 0.0652
pull-down binding Z-score (TO-N3 (biotin conjugate)): 1.03

AAGACACUAUCUGACAACAACAGGGCUCUU [hsa-mir-550b-2]
pull-down binding Z-score [1]: 0.0423
pull-down binding Z-score [2]: 0.201
pull-down binding Z-score [3]: 0.234
pull-down binding Z-score [4]: 0.681
pull-down binding Z-score (TO-N3 (biotin conjugate)): 0.93

CUCUAGACUCUAUUAUAGUUUCCUGAG [hsa-mir-558]
pull-down binding Z-score [1]: -1.03
pull-down binding Z-score [2]: -0.582
pull-down binding Z-score [3]: -0.545
pull-down binding Z-score [4]: -0.335
pull-down binding Z-score (TO-N3 (biotin conjugate)): -0.751

AGUCACUUAGAUUACAUGUCACU [hsa-mir-892c]
pull-down binding Z-score [1]: -1.24
pull-down binding Z-score [2]: 0.0543
pull-down binding Z-score [3]: -0.486
pull-down binding Z-score [4]: 0.00628
pull-down binding Z-score (TO-N3 (biotin conjugate)): -0.172

UGCUAUUAGAAAGUAAUGGCA [hsa-mir-548ba]
pull-down binding Z-score [1]: 0.465
pull-down binding Z-score [2]: 0.507
pull-down binding Z-score [3]: -0.00903
pull-down binding Z-score [4]: 0.757
pull-down binding Z-score (TO-N3 (biotin conjugate)): 0.776

UUUUUUUCGCUUUAUUUGUGACGAAAC [hsa-mir-543]
pull-down binding Z-score [1]: -0.305
pull-down binding Z-score [2]: -0.278
pull-down binding Z-score [3]: -0.882
pull-down binding Z-score [4]: -0.674
pull-down binding Z-score (TO-N3 (biotin conjugate)): -0.856

GUGAGAUGUUCAUACAAUCCCUCAC [hsa-mir-216a]
pull-down binding Z-score [1]: -1.01
pull-down binding Z-score [2]: -0.438
pull-down binding Z-score [3]: -0.17
pull-down binding Z-score [4]: -0.788
pull-down binding Z-score (TO-N3 (biotin conjugate)): -0.852

ACUCCUAGGUCACGGAAGU [hsa-mir-6838]
pull-down binding Z-score [1]: -0.404
pull-down binding Z-score [2]: -0.33
pull-down binding Z-score [3]: -0.0545
pull-down binding Z-score [4]: -0.255
pull-down binding Z-score (TO-N3 (biotin conjugate)): -0.23

AGGGCUGGGAUUACUAAAGCCCU [hsa-mir-1266]
pull-down binding Z-score [1]: 1.24
pull-down binding Z-score [2]: -0.105
pull-down binding Z-score [3]: -0.335
pull-down binding Z-score [4]: -0.0287
pull-down binding Z-score (TO-N3 (biotin conjugate)): -0.158

UUCUGUUGUCUGAAAGAAACCAA [hsa-mir-518d]
pull-down binding Z-score [1]: -1.34
pull-down binding Z-score [2]: -0.0975
pull-down binding Z-score [3]: 0.126
pull-down binding Z-score [4]: -0.253
pull-down binding Z-score (TO-N3 (biotin conjugate)): -0.0135

UAUAACUUGAAGAAUUCAAAUAGUCAUG [hsa-mir-3146]
pull-down binding Z-score [1]: -0.817
pull-down binding Z-score [2]: -0.34
pull-down binding Z-score [3]: -0.75
pull-down binding Z-score [4]: -0.804
pull-down binding Z-score (TO-N3 (biotin conjugate)): -1.06

AGCAAGGUGCGUCGUAUCUUGCU [hsa-mir-4804]
pull-down binding Z-score [1]: 0.816
pull-down binding Z-score [2]: -0.581
pull-down binding Z-score [3]: -0.798
pull-down binding Z-score [4]: -0.499
pull-down binding Z-score (TO-N3 (biotin conjugate)): -0.702

CAAAACUCCGUACAUUGCUAUUUUGC [hsa-mir-3064]
pull-down binding Z-score [1]: -0.316
pull-down binding Z-score [2]: 0.0575
pull-down binding Z-score [3]: -0.105
pull-down binding Z-score [4]: -0.563
pull-down binding Z-score (TO-N3 (biotin conjugate)): -0.39

CUCGGCCAUCCUCCGUCUGCCCAG [hsa-mir-935]
pull-down binding Z-score [1]: -1.08
pull-down binding Z-score [2]: 0.13
pull-down binding Z-score [3]: 1.16
pull-down binding Z-score [4]: -0.0566
pull-down binding Z-score (TO-N3 (biotin conjugate)): 0.473

GAAAUAGGCUGCGAAGAUAACAGUAUUUC [hsa-mir-3942]
pull-down binding Z-score [1]: 0.773
pull-down binding Z-score [2]: -0.17
pull-down binding Z-score [3]: -0.482
pull-down binding Z-score [4]: -0.872
pull-down binding Z-score (TO-N3 (biotin conjugate)): -0.979

CGAGACACAGAAACAGACACCUGCCCUCGA [hsa-mir-151b]
pull-down binding Z-score [1]: -2.29
pull-down binding Z-score [2]: 0.464
pull-down binding Z-score [3]: 1.69
pull-down binding Z-score [4]: 0.442
pull-down binding Z-score (TO-N3 (biotin conjugate)): 1.21

CAAUCACAUGUAAUUAGGUGUGAUUG [hsa-mir-510]
pull-down binding Z-score [1]: 1.4
pull-down binding Z-score [2]: -0.773
pull-down binding Z-score [3]: -1.29
pull-down binding Z-score [4]: -0.789
pull-down binding Z-score (TO-N3 (biotin conjugate)): -1.09

GUGAGGCAGGGAGCUGAGCUCAC [hsa-mir-3622a]
pull-down binding Z-score [1]: -0.0355
pull-down binding Z-score [2]: 0.142
pull-down binding Z-score [3]: 1.06
pull-down binding Z-score [4]: 0.401
pull-down binding Z-score (TO-N3 (biotin conjugate)): 0.698

UUUGCCAUUAAAAGUAACGACAAA [hsa-mir-548a-1]
pull-down binding Z-score [1]: -0.965
pull-down binding Z-score [2]: -0.389
pull-down binding Z-score [3]: -0.81
pull-down binding Z-score [4]: -0.873
pull-down binding Z-score (TO-N3 (biotin conjugate)): -1.11

AUGUGAUUGCUGUCCCAAACUCAUGU [hsa-mir-135b]
pull-down binding Z-score [1]: -0.794
pull-down binding Z-score [2]: 0.00564
pull-down binding Z-score [3]: -0.0979
pull-down binding Z-score [4]: -0.305
pull-down binding Z-score (TO-N3 (biotin conjugate)): -0.126

CCCGGCCGGCAGCCCCCGGCCUUAAAGCGCGGG [hsa-mir-4741]
pull-down binding Z-score [1]: 0.653
pull-down binding Z-score [2]: 0.194
pull-down binding Z-score [3]: 2.16
pull-down binding Z-score [4]: -0.112
pull-down binding Z-score (TO-N3 (biotin conjugate)): 0.228

CAGACGGCUUUCUCUCCGAAUGUCUG [hsa-mir-2276]
pull-down binding Z-score [1]: -0.958
pull-down binding Z-score [2]: -0.376
pull-down binding Z-score [3]: -0.639
pull-down binding Z-score [4]: -0.908
pull-down binding Z-score (TO-N3 (biotin conjugate)): -1.12

AGCCCUGUUGUUGUAAGAUAGUGU [hsa-mir-550a-1]
pull-down binding Z-score [1]: -0.249
pull-down binding Z-score [2]: -0.124
pull-down binding Z-score [3]: 0.346
pull-down binding Z-score [4]: -0.325
pull-down binding Z-score (TO-N3 (biotin conjugate)): -0.00359

UAGGCUGUGCAGGUCCCAAUGGGCCUA [hsa-mir-26a-1]
pull-down binding Z-score [1]: 1.56
pull-down binding Z-score [2]: -0.0454
pull-down binding Z-score [3]: 0.528
pull-down binding Z-score [4]: 0.169
pull-down binding Z-score (TO-N3 (biotin conjugate)): 0.151

GCUGCUUGCACUCGUUCAGC [hsa-mir-3661]
pull-down binding Z-score [1]: 0.0999
pull-down binding Z-score [2]: -0.246
pull-down binding Z-score [3]: 0.863
pull-down binding Z-score [4]: -0.0975
pull-down binding Z-score (TO-N3 (biotin conjugate)): 0.1

GAAGAAGAAGAAGAAGAAGAAGAAGAAGAAGAAGAAGAAGAAGAAGAA [r(GAA)16]
pull-down binding Z-score [1]: -1.35
pull-down binding Z-score [2]: 3.35
pull-down binding Z-score [3]: 3.94
pull-down binding Z-score [4]: 1.7
pull-down binding Z-score (TO-N3 (biotin conjugate)): 3.53

CACGCCGCGCCGCCGGGUCCCUCCUCCCCGGAGAGGCUG [hsa-mir-4674]
pull-down binding Z-score [1]: 0.455
pull-down binding Z-score [2]: -0.048
pull-down binding Z-score [3]: 1.56
pull-down binding Z-score [4]: 0.257
pull-down binding Z-score (TO-N3 (biotin conjugate)): 0.606

CAAGGGCUCUACUGUCCUUUCAGGAGAGCCCUUG [hsa-mir-4776-2]
pull-down binding Z-score [1]: 1.19
pull-down binding Z-score [2]: -1.02
pull-down binding Z-score [3]: -1.37
pull-down binding Z-score [4]: -0.245
pull-down binding Z-score (TO-N3 (biotin conjugate)): -0.597
